Holding throughout (settings): both partners purified
Assay [1] deals with recombinant SARS-CoV-2 S1 RBD protein (Severe acute respiratory syndrome …, UniProt P0DTC2). As to the kind of experiment: BLI. On the technique in general: Biolayer interferometry detects binding as a change in optical thickness at a sensor tip.
In assay [2] the target is SARS-CoV-2 spike receptor-binding domain (residues 333 to 530), carboxyl-terminal 8xHis tag (Severe acute respiratory syndrome …, UniProt P0DTC2). As to the kind of experiment: crystal structure.
Assay [3] deals with recombinant SARS-CoV-2 S1 protein (SARS-CoV-2, wild type (reference), UniProt P0DTC2). As to the kind of experiment: BLI.

A value given as a limit tells only on which side of the number the result lay.

This is an account of results in article PMC8133496 (PLoS Biology, 2021).

B1: PR953 (antibody, V domains shown)
VH: EVQLQQSGPELVKPGASVKISCKTSGYTFTEYTMHWVKQSHGKSLEWIGGINPNNGDNTYNQKLKGKATLTVHKSSSTAYMELRSLTSEDSAVYYCARDGYPYYYALDYWGQGTSVTVSS
VL: DIVMTQSQKFMSTSVGDRVSVTCKASQNVGTNVAWYQQKPGQSPKPLIYSASSRYSGVPDRFTGSGSGTDFTLTISNVQSEDLAEYFCQQYNNYPWTFGGGTKLEIK
notes: source: HEK 293F or ExpiCHO, transfected, purified (Protein A)
A word on the Kd: it is the constant that tells how readily two partners part at equilibrium. Consider B1, for which, in assay [1], the dissociation constant Kd was below 0.001 nM.

B2: PR961 single-chain variable fragment (scFv, V domains shown)
VH: QVQLVQSGAEVKKPGASVKLSCKASGYSFTSYWVNWVRQAPGQGLEWIGMIHPSDSETRLNQKFKDRVTITVDKSTSTAYMELSSLRSEDTAVYYCARADGYEWYFDVWGRGTLVTVSS
VL: DIVLTQSPASLAVSPGQRATITCRASESVDSYGNSFMHWYQQKPGQPPKLLIYRASNLESGIPARFSGSGSGTDFTLTINPVEANDVANYYCQQSNEDPWTFGQGTKVEIK
notes: also called PR961 scFv
Consider B2, for which the binding result in assay [2] was “binds”.

B3: PR1077 (antibody, V domains shown)
VH: QVQLVESGGGVVQPGRSLRLSCAASGFTFSYYGMHWVRQAPGKGLEWVAVIWYDGSNRFYADSVKGRFTISRDNSKSTLYLQMNSLRAEDTAVYYCATDPPGLRFRFDYWGQGTLVTVSS
VL: not shown
notes: as for B1
Take B3: the Kd in assay [1] is 2.33 nM; in assay [3] it was 0.543 nM.
